First the molecules themselves.
B1: PSD-95 PDZ2 (domain or fragment, UniProt P78352-1 155-247, looked up)
chain: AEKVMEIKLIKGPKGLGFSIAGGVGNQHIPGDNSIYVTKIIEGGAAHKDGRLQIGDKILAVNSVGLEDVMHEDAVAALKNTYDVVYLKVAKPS
B2: Stg_CT WT (domain or fragment, mouse, UniProt O88602 203-323, looked up)
chain: DRHKQLRATARATDYLQASAITRIPSYRYRYQRRSRSSSRSTEPSHSRDASPVGVKGFNTLPSTEISMYTLSRDPLKAATTPTATYNSDRDNSFLQVHNCIQKDSKDSLHANTANRRTTPV
B3: Stg_CT Δ4 (domain or fragment, mouse, UniProt O88602 203-319, looked up)
chain: DRHKQLRATARATDYLQASAITRIPSYRYRYQRRSRSSSRSTEPSHSRDASPVGVKGFNTLPSTEISMYTLSRDPLKAATTPTATYNSDRDNSFLQVHNCIQKDSKDSLHANTANRR

In the experiment “Stg_CT WT” the target is B2. Kind of experiment: ITC. (In general: Isothermal titration calorimetry measures the heat released or taken up as one component is titrated into another.)
The target of a further experiment is PSD-95 PSG (UniProt P78352-1 309-724). Kind of experiment: ITC.
Another experiment concerns the target PSD-95 NPDZ12 (UniProt P78352-1 1-247). The experiment can be described thus: NMR titration.

The results in this text go back to PMC6842113 (Neuron, 2019).

For B1, the binding result in the experiment with Stg_CT WT was “binds”.

For B2, the Kd with PSD-95 PSG is roughly 5.3 µM.

B3: in the experiment with PSD-95 NPDZ12, the binding result is on record as “binds”.

What is called Kd is the constant that tells how readily two partners part at equilibrium. High values mean lower affinity, low ones higher affinity.
